As usually defined, the Kd is a measure of binding affinity in units of concentration.

Residue numbers refer to the chain shown, from its start. Names and notes keep the numbering of the source.

To fix the notation:
T1: EsCas13d, nuclease-dead (Eubacterium siraeum, UniProt B0MS50, R295A;H300A;R849A;H854A)
T1 sequence: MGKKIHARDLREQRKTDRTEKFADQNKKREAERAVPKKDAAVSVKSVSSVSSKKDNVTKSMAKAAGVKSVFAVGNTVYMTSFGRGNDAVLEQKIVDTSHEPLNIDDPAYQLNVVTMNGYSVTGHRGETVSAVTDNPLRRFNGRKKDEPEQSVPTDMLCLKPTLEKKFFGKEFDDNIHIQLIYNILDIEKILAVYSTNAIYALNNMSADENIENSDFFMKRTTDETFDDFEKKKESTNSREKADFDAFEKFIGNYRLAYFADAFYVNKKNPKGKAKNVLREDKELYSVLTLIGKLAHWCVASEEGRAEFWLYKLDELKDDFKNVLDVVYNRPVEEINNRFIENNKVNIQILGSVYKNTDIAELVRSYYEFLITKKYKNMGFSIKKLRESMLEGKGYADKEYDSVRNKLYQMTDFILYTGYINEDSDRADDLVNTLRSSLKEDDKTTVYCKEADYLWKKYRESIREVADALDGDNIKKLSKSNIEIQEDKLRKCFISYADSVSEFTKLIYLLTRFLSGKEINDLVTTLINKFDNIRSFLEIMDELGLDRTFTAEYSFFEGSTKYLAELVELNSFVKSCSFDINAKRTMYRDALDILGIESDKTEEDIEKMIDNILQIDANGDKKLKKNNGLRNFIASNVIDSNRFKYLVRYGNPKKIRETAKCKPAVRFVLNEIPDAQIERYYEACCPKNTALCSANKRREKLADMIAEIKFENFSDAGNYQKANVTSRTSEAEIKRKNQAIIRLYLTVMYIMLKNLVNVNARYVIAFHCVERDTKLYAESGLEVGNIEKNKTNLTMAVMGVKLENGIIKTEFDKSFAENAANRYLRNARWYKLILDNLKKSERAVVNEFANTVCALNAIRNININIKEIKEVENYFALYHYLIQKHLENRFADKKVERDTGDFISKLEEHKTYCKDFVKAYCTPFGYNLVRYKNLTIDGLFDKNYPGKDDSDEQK

B1: target 1 del3 (mixed)
RNA 1: CACCCGUGCAAAAAUGCAGGGGUCUAAAACUGAGCGGAUAACCUCUCUAUGG
RNA 2: GGGAAUGGAUCCACAUCUACGAAUUCGUACCAUAGAGAGGUUAUCCGCCACCGAGAUCGGAAGAGCACACGU
B2: target 1 del1,del7 (mixed)
RNA 1: B1 RNA 1
RNA 2: GGGAAUGGAUCCACAUCUACGAAUUCGUACCAUAGAGAGGUUAUCGCUCCCGAGAUCGGAAGAGCACACGU
B3: target 1 insC 3' of 10,insC 3' of 1 (mixed)
RNA 1: B1 RNA 1
RNA 2: GGGAAUGGAUCCACAUCUACGAAUUCGUACCAUAGAGAGGUUCAUCCGCUCACCCGAGAUCGGAAGAGCACACGU
B4: target 1 U11G,C21U (mixed)
RNA 1: B1 RNA 1
RNA 2: GGGAAUGGAUCCACAUCUACGAAUUCGUACUAUAGAGAGGGUAUCCGCUCACCGAGAUCGGAAGAGCACACGU
B5: target 1 U10G,A20C (mixed)
RNA 1: B1 RNA 1
RNA 2: B4 RNA 2 with U31C, A32C, G41U, U42G
B6: target 1 U3G,C4A (mixed)
RNA 1: B1 RNA 1
RNA 2: B4 RNA 2 with U31C, G41U, C48A, U49G
B7: target 1 insU 3' of 12,insA 3' of 3 (mixed)
RNA 1: B1 RNA 1
RNA 2: B3 RNA 2 with C43U, C51A, A52C, C53A
B8: target 1 insC 3' of 15,insC 3' of 10 (mixed)
RNA 1: B1 RNA 1
RNA 2: GGGAAUGGAUCCACAUCUACGAAUUCGUACCAUAGAGCAGGUUCAUCCGCUCACCGAGAUCGGAAGAGCACACGU
B9: target 1 del2,del7 (mixed)
RNA 1: B1 RNA 1
RNA 2: B2 RNA 2 with C49A
B10: target 1 insG 3' of 6,insG 3' of 6 (mixed)
RNA 1: B1 RNA 1
RNA 2: B3 RNA 2 with C43A, A44U, U45C, C47G, C49G, U50C, C51U, A52C, C53A
B11: target 1 A1U,C4G (mixed)
RNA 1: B1 RNA 1
RNA 2: B4 RNA 2 with U31C, G41U, C48G, A51U
B12: target 1 C6G (mixed)
RNA 1: B1 RNA 1
RNA 2: B4 RNA 2 with U31C, G41U, C46G
B13: target 1 del8 (mixed)
RNA 1: B1 RNA 1
RNA 2: B1 RNA 2 with U44C, C46G, G47C, C48U
B14: target 1 C7U,C22A (mixed)
RNA 1: B1 RNA 1
RNA 2: B4 RNA 2 with C30A, U31C, G41U, C45U
B15: target 1 C4G (mixed)
RNA 1: B1 RNA 1
RNA 2: B4 RNA 2 with U31C, G41U, C48G
B16: target 1 A1U,C21U (mixed)
RNA 1: B1 RNA 1
RNA 2: B4 RNA 2 with G41U, A51U
B17: target 1 A9C,U10C (mixed)
RNA 1: B1 RNA 1
RNA 2: B4 RNA 2 with U31C, G41U, U42C, A43C
B18: target 1 insC 3' of 10,insG 3' of 1 (mixed)
RNA 1: B1 RNA 1
RNA 2: B3 RNA 2 with C53G
B19: target 1 U8C,C22U (mixed)
RNA 1: B1 RNA 1
RNA 2: B4 RNA 2 with C30U, U31C, G41U, U44C
B20: target 1 C6U,U11A (mixed)
RNA 1: B1 RNA 1
RNA 2: B4 RNA 2 with U31C, G41A, C46U
B21: target 1 U3G,U19G (mixed)
RNA 1: B1 RNA 1
RNA 2: B4 RNA 2 with U31C, U33G, G41U, U49G
B22: target 1 insC 3' of 10,insA 3' of 2 (mixed)
RNA 1: B1 RNA 1
RNA 2: B3 RNA 2 with C53A
B23: target 1 complement block 5-9 (mixed)
RNA 1: B1 RNA 1
RNA 2: B4 RNA 2 with U31C, G41U, A43U, U44A, C45G, C46G, G47C
B24: target 1 insC 3' of 10,insU 3' of 1 (mixed)
RNA 1: B1 RNA 1
RNA 2: B3 RNA 2 with C53U
B25: target 1 A1G,C4G (mixed)
RNA 1: B1 RNA 1
RNA 2: B4 RNA 2 with U31C, G41U, C48G, A51G
B26: target 1 U8C,U19A (mixed)
RNA 1: B1 RNA 1
RNA 2: B4 RNA 2 with U31C, U33A, G41U, U44C
B27: target 1 A1C,C4G (mixed)
RNA 1: B1 RNA 1
RNA 2: B4 RNA 2 with U31C, G41U, C48G, A51C
B28: target 1 insU 3' of 6,insC 3' of 5 (mixed)
RNA 1: B1 RNA 1
RNA 2: B3 RNA 2 with C43A, A44U, U45C, C47U, U50C, C51U, A52C, C53A

For the data set, the target named is T1, EsCas13d, nuclease-dead. In words: crRNA (strand 1, pre-loaded); Mg2+; 40 mM Tris-HCl pH 7.5, 150 mM NaCl, 6 mM MgCl2, 1 mM DTT, 0.1% Tween-20, 0.2 mg/ml BSA; 25 C; 10 min per concentration, then washed. The note with it: tags: His6-TwinStrep-SUMO cleaved; N-terminal SNAP kept (SNAP-Surface 488); label: 3' end held by stalled T7 RNA polymerase.
B1 had a Kd of 28 ± 5 nM.
The result for B2 reads 9.7 ± 0.6 nM; that for B3, 13.5 ± 1 nM; that for B4, 9.4 ± 0.5 nM.
As for B5, binding was put at a Kd of 76 ± 29 nM.
With B6 the figure was 4.19 ± 0.3 nM; with B7, 5.8 ± 0.4 nM; with B8, 17.3 ± 1.1 nM.
With B9 the figure was 6.62 ± 0.24 nM.
With B10 the figure was 11.4 ± 0.5 nM.
B11 registered a Kd of 6.11 ± 0.25 nM.
With B12 the figure was 8.37 ± 0.31 nM; with B13, 10.5 ± 0.6 nM; with B14, 11 ± 0.5 nM.
In turn, B15 returned a dissociation constant (Kd) of 5.3 ± 0.8 nM.
B16 displayed an equilibrium dissociation constant (Kd) of 7.6 ± 0.4 nM.
The result for B17 reads 15.1 ± 1.5 nM; that for B18, 15.5 ± 1.4 nM.
The result for B19 reads 28 ± 4 nM.
The result for B20 reads 38.2 ± 2.4 nM; that for B21, 35.9 ± 2.7 nM.
On to B22, for which binding was put at a Kd of 19.4 ± 2.4 nM.
The result for B23 reads 17.2 ± 0.7 nM; that for B24, 26 ± 4 nM.
The result for B25 reads 5.2 ± 0.34 nM.
The result for B26 reads 59 ± 9 nM.
As to B27, binding was characterised by a dissociation constant (Kd) of 10.7 ± 1 nM.
Take B28: binding was put at a Kd of 13.9 ± 0.8 nM.

These data come from article PMC10786891, “Massively parallel profiling of RNA-targeting CRISPR-Cas13d”.
